The source of these data is publication PMC2408619, “Selective Ligand Recognition by a Diversity-Generating Retroelement Variable Protein” (PLoS Biology, 2008).

In test [1] the target is T1, Biotinylated Prn-E (pertactin residues 38-640 with N-terminal biotinylation sequence) (B. bronchiseptica, UniProt Q03035 38-640, biotin (in vivo biotinylation of the N-terminal biotinylation sequence)).
T1 construct: Pertactin of B. bronchiseptica, ectodomain residues 38-640; also called immobilized pertactin
T1 sequence: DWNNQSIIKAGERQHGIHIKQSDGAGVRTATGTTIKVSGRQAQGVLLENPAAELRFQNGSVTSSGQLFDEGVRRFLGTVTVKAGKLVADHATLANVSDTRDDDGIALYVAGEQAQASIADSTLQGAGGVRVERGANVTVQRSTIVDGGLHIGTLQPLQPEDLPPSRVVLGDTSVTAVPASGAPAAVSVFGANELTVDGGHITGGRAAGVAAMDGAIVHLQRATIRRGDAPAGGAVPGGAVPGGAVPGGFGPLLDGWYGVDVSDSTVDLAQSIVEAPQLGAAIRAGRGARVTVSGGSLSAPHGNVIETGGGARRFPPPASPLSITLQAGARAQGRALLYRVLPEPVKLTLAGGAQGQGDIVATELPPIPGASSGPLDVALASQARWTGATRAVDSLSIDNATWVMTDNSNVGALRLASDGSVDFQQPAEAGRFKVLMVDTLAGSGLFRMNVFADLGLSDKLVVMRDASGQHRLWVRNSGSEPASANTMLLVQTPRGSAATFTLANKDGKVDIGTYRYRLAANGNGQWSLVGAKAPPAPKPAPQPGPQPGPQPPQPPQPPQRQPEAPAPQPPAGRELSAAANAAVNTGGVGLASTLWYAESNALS
In words: SPR; Biacore 3000, 25 °C; ~100 RU biotinylated Prn-E on a streptavidin chip; Mtd proteins injected in 150 mM NaCl, 50 mM Tris pH 8.0, 0.005% Tween 20 at 30 μl/min; single-site model, global fit, six concentrations, duplicate. As to conditions: both partners purified.

Test [2] addresses T2, His-tagged ectodomain of B. bronchiseptica pertactin (Prn-E; residues 38-640) (B. bronchiseptica, UniProt Q03035 38-640).
T2 construct: Pertactin of B. bronchiseptica, 60 kDa ectodomain, residues 38-640 of the 93 kDa precursor; the loop deletion mutants carry an N-terminal His tag from pET28b; also called wild-type Prn-E; His-tagged Prn-E
T2 sequence: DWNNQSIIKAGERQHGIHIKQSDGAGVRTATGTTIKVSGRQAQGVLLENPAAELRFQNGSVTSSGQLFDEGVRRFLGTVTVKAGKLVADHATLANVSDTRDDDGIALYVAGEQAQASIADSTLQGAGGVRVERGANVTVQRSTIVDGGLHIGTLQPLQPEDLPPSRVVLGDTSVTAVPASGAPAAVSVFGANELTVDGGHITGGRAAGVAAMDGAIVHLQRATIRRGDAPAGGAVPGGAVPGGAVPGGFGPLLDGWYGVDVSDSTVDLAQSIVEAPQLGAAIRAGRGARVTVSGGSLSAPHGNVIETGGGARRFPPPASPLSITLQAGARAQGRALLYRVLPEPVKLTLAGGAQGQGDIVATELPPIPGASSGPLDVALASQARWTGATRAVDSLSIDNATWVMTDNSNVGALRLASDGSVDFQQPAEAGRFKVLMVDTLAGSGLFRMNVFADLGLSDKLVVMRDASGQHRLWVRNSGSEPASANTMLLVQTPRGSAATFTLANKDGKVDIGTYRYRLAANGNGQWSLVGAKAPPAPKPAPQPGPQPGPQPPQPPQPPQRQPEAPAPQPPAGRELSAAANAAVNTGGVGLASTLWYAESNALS
Description: crystal structure; Mtd-P1·Prn-E complex formed with ~1.6-fold molar excess of Mtd-P1 trimers over His-tagged Prn-E, isolated by Ni2+-chelation and Superdex 200; crystals at 25 °C in 2 M NaCl, 100 mM Tris pH 8.5, 200 mM Li2SO4; 3.16 Å. The settings on record: both partners purified.

The target in test [3] is T1, Biotinylated Prn-E (pertactin residues …). Description: SPR; Biacore 3000, 25 °C; ~100 RU biotinylated Prn-E on a streptavidin chip; whole phage injected (BPP-1 ~1.2-3.7 × 10^-15 M, BPP-6 ~1-2 × 10^-16 M, BIP-1 8.3 × 10^-16 to 8.3 × 10^-15 M, BMP-1 e.g. 3.68 × 10^-15 M); multivalent; single-site model, global fit. As to conditions: one partner purified. (In general: In SPR one partner is held on a chip, and binding of the other changes the refractive index at the surface.)

B1: Bordetella bacteriophage major tropism determinant variant Mtd-P1 (natural protein)
chain: MSTAVQFRGGTTAQHATFTGAAREITVDTDKNTVVVHDGATAGGFPLARHDLVKTAFIKADKSAVAFTRTGNATASIKAGTIVEVNGKLVQFTADTAITMPALTAGTDYAIYVCDDGTVRADSNFSAPTGYTSTTARKVGGFHYAPGSNAAAQAGGNTTAQINEYSLWDIKFRPAALDPRGMTLVAGAFWADIYLLGVNHLTDGTSKYNVTIADGSASPKKSTKFGGDGSAAYSDGAWYNFAEVMTHHGKRLPNYNEFQALAFGTTEATSSGGTDVPTTGVNGTGATSAWNIFTSKWGVVQASGCLWTWGNEFGGVNGASEYTANTGGRGSVYAQPAAALFGGAWNGTSLSGSRAALWYSGPSFSFAFFGARGVCDHLILE
notes: Major tropism determinant (Mtd), variant P1, expressed by Bordetella bacteriophage BPP-1; Mtd has 381 residues in total; trimer of 120 kDa
As a reminder, the Kd is the equilibrium constant for the complex coming apart. A higher Kd goes with weaker binding. For orientation: kon means the second-order rate constant of association. A higher kon goes with fast association. As for B1, in test [1], the Kd came to 3.47 ± 0.13 µM and the on-rate constant (kon) is approximately 10000 M⁻¹ s⁻¹. The “stoichiometry N” value in test [2] is 3 Mtd-P1 protomers per Prn-E.

B2: BPP-1 phage displaying Mtd-P1 (other)
chain: MSTAVQFRGGTTAQHATFTGAAREITVDTDKNTVVVHDGATAGGFPLARHDLVKTAFIKADKSAVAFTRTGNATASIKAGTIVEVNGKLVQFTADTAITMPALTAGTDYAIYVCDDGTVRADSNFSAPTGYTSTTARKVGGFHYAPGSNAAAQAGGNTTAQINEYSLWDIKFRPAALDPRGMTLVAGAFWADIYLLGVNHLTDGTSKYNVTIADGSASPKKSTKFGGDGSAAYSDGAWYNFAEVMTHHGKRLPNYNEFQALAFGTTEATSSGGTDVPTTGVNGTGATSAWNIFTSKWGVVQASGCLWTWGNEFGGVNGASEYTANTGGRGSVYAQPAAALFGGAWNGTSLSGSRAALWYSGPSFSFAFFGARGVCDHLILE
notes: Major tropism determinant (Mtd), variant P1, at the ends of the tail fibers of whole BPP-1 phage; 381 residues; Whole phage particle; The other phage proteins are not written; also called BPP-1(Δbrt); source: phage harvested from B. bronchiseptica RB50 cultures, concentrated by centrifugation and ultrafiltration
In turn, B2 yielded a Kd in test [3] of 6.89 ± 1.77 pM.
